Test results taken from PMC3489787, “Characterization of EssB, a protein required for secretion of ESAT-6 like proteins in Staphylococcus aureus” (BMC Microbiology, 2012).

B1: EssB^MC (domain or fragment)
chain: RKVGHTVFKWVAIGMTTLSVLLIAFLAFLYFSVMKHNERIEKGYQAFVKDDYTQVLNTYDDLDGKKLDKEALYIYAKSYIQTNKQGLEKDKKENLLNNVTPNSNKDYLLYWMELGQGHLDEAINIATYLDDNDITKLALINKLNEIKNNGDLSNDKRSEETKKYNDKLQDILDKEKQVKDEKAKSEEEKAKAKDEKLKQQEENEKKQKEQAQKDKEKRQEAERKK
notes: EssB of Staphylococcus aureus, codons 220-444, C-terminal domain with the PTMD (229-251); also called EssB^CM; his-essB^CM product; source: E. coli, pET15b, purified (Ni-NTA Agarose, thrombin cleavage); not shown: His6, N-terminal, cleaved
B2: EssB^NM (domain or fragment)
chain: MVKNHNPKNEMQDMLTPLDAEEAAKTKLRLDMREIPKSSIKPEHFHLMYLLEQHSPYFIDAELTELRDSFQIHYDINDNHTPFDNIKSFTKNEKLRYLLNIKNLEEVNRTRYTFVLAPDELFFTRDGLPIAKTRGLQNVVDPLPVSEAEFLTRYKALVICAFNEKQSFDALVEGNLELHKGTPFETKVIEAATLDLLTAFLDEQYQKQEQDYSQNYAYVRKVGHTVFKWVAIGMTTLSVLLIAFLAFLYFSV
notes: EssB of Staphylococcus aureus, codons 1-252, N-terminal domain with the PTMD (229-251); also called his-essB^NM product; EssB(1-252); source: E. coli, pET15b, purified (Ni-NTA Agarose, thrombin cleavage); not shown: His6, N-terminal, cleaved

Target: the molecule itself
Assay: SEC; about 100 ug of each purified protein, tags removed, on Superdex 75 10/300 GL in 50 mM Tris-HCl pH 8.0, 150 mM NaCl, 1 mM DTT at 4 °C, 0.5 ml/min; fractions on Coomassie-stained SDS-PAGE; calibrated with aldolase 158, conalbumin 75, ovalbumin 43, myoglobin 17 kDa (the results name a Sephacryl S-200 column)

| Protein | binding result |
| --- | --- |
| B1 | binds |
| B2 | binds |
